{
  "source": "paper PMC8294335",
  "about": "(Molecular Cell, 2021)",
  "biological_target": "the molecule itself",
  "test": "cryo-EM structure",
  "data": [
    {"protein": "GFP-HCN4ΔC (rabbit HCN4 carrying an internal deletion from residues 783 to 1064, with N-terminal decahistidine-eGFP tag) (natural protein) MDKLPPSMRKRLYSLPQQVGAKAWIMDEEEDAEEEGAGGRQDPRRRSIRLRPLPSPSPSPSAAAAAAGGAESRGAALGGAADGEGPARGAAKSSTNGDCRRFRGSLASLGSRGGGGGGGSTGGGSHGHLHDSAEERRLIAEGDASPGEDRTPPGLAAEPERPGAPAPPAASPPQVPSSCGEQRPADAAVKVEGGAAAGDQILPEAEARLGQAGFMQRQFGAMLQPGVNKFSLRMFGSQKAVEREQERVKSAGFWIIHPYSDFRFYWDLTMLLLMVGNLIIIPVGITFFKDENTTPWIVFNVVSDTFFLIDLVLNFRTGIVVEDNTDIILDPRRIKMKYLKSWFVVDFVSSIPVDYIFLIVETRIDSEVYKTARALRIVRFTKILSLLRLLRLSRLIRYIHQWEEIFHMTYDLASAVVRIVNLIGMMLLLCHWDGCLQFLVPMLQDFPDDCWVSLNNMVNNSWGKQYSYALFKAMSHMLCIGYGRQAPMGMSDVWLTMLSMIVGATCYAMFIGHATALIQSLDSSRRQYQEKYKQVEQYMSFHKLPPDTRQRIHDYYEHRYQGKMFDEESILGELSEPLREEIINFNCRKLVASMPLFANADPNFVTSMLTKLRFEVFQPGDYIIREGTIGKKMYFIQHGVVSVLTKGNKETKLADGSYFGEICLLTRGRRTASVRADTYCRLYSLSVDNFNEVLEEYPMMRRAFETVALDRLDRIGKKNSILLHKVQHDLSSGVSNYQENAIVQRIVQHDREMAHCARRAQATTPVAPAIWTPLIQAPLQAAQDLKLISASQPALPQDGAQTLRRASPHSSSGESVAALPPFPRAPGRPPGAGPGQHVTLTLPRKASSGSLPPPLSLFGPRAAPAGGPRLTAAPQREPGAKSEPVRSKLPSNL", "values": [
      {"measurement": "stoichiometry N", "result": 4}
    ]}
  ]
}
